{"source": "a protein production outcome set (Wang et al. 2014)", "test": "label from the status in PepcDB records", "data": [{"sequence": "MFEAARFGDEISHTSALGGFLIGAALGIALVATVAIATFTCGFGVALLAGLAAGIGGSLLTAAGEAIGSMFSSPSGTITTASPNVFINSRKAARVEKSIGACDKHPGPVQIAEGSTNVFINSVAAARKGDKLTCGATISGGSDNVIIGGGTYRYLPVDDEVPEWLRTTVDVLMAIAGAAGGIAQLIKAGTQAGMKAVMPCALKFTAGFVAGEVASRYVVEPVARKAIGGLVGNPVDLTTGRKLIPDEIDFSLPGLMPIEWSRFYASDLTVDSVLGRGWVLPWEQSLRRQGAFIYLTDNQGREVPFVTLQPGQRIYNPHEQVYLVCTEGGHYILQTLDNLFFYFGEVPDTNTEVPLQRIENVLGHFLHFTRTPDGTLTDISATGGTRVHLHYDNPLGRLTDIKRVVNNEAVETLTQYRYDEHGQLSAVINRNGDTVRSFSYADGLMVTHSNALGLGCHYRWQTLGDKPRVVEHWTSDGEHYHFRYDLDSRTSWATDVLGRELEVQYNADHRVVASRDYGGERYAIELDEHGNMVGLTLPDGNRLQFKYDEFSRLLEETDPLGRKTQYEYHHLTTLVTQVSYPDGSTWRARFDDKGNLLAEFDALGQMTEYLNSDDGLPHTIIDATYKSKYLWWNTLAQVERYQDCSGKSTYYRYDERQHLVAVTDALNQTTTLARKPDGEVLRISHPDGTTESFTYNVYGQVLSHTDGKGQTTRLMRTARGLPSSRQDAKGQRVRYEYDKAMRLTALVNENNATYSFAYDASDRLSEEVRVDNLTRRFSYDVGGHLTRLDEIGYGENAERPERHTLFERDAIGRLIAKLNSDAQQRFTYDDGDRLLSIERQPTGIGKQLGITEEKLEYAYDLLGRLTKEISPDGTLGYEYDPLSNLTTLTLPDGRKVNHLYYGSGHLHQLNLDGQVISDMERDDLHREVYRTQGKLTSCFGYDAMGRKAWQFASTLPADKLSQVHNTGINTSLLVEHAYNPIHRRYQYDPAGELVRTLDKLRGEIKYEYEANGQLRSRDTGSLIGSEEFRYDPAANRLDFNARQFDKVKDNRIKQWRDQEYRYDPWGNLIEKRSGHSKLQHFSYDCENRLVRAETLVNGKLESQGEYRYDSLGRRIAKQAEINGEVEQKRFLWQGLRMLREETPGQSILYLYEPGSYAPLARVDQVEGEGQKVYYFHTDQIGTPLELTDSEGEIVWQATYRSWGTIETLSIKEVDQNLRFQGQYFDAETGLHYNTFRYYYSEVGRYVTQDPIGLDGGLNLYRYGQNPAGWIDPWGWECWSTARKNYWKAEAKAPTRAYSPTNLVRMAEGKAPKMTVEVISRKTDKISIREYALELHHNDIPQRVGGAGVHDSSNLLALTPWEHEAVDQFRHVGSDLIRVIKGVDVW", "values": [{"measurement": "protein production", "result": "failed"}]}, {"sequence": "MSSSTGALHWQTAQAALARRDLGVAGSALQALLEVEPTHVSARVLLAGTVLANGRMREAVAQLQLAARDVDDDVAMRCRVAQALLRVGAHRQLHALLRHPSVMQCRDGATLALLAHVHQSLGEHVDALAMMQRAQVCGFDGPDFRFFLAVQLQFNGRLDDAAQALEQTLALVPGYGRAALTRARLRRQTVSSNHVDQLRQQLQRSKPDSEDRAGLAFALYKELEDLGDTDAAWDALQHGNAVMHARLRHDADAEASLYARLGTLAEQGVFAAQASDADAVALQGPQPIFVLGLPRSGTTVLERMLGNHSQIVSAGELNDFGHQLRWGADQAGRSLLDAGLLQAFPTLDYTQIGARYLEQTQWRAGPARWYIDKLPANAVAIGAIARALPGALIVHLVREPMAVCFSNYRALFGDSYAYSYDVHTLARHYQAYHGLMAQWRAALPGRVIDVDYTQMVRDPSTVLQQLMARCGLDIEPGQSDITRNAAASATLSSVQVREGVHSRNVEHWRRYAMQLEPLRQALAEAGLIDAGLH", "values": [{"measurement": "protein production", "result": "failed"}]}, {"sequence": "MKCNERDCNNDNGEEDEKDTNTTIAVKLPATTALIVGYDPIDDQHKALSLKRKRTEKLSFINALKGFVQWGSEAVFIEYKGKLASIDLETVKSLGALMDSKEPPAPVNLLF", "values": [{"measurement": "protein production", "result": "failed"}]}, {"sequence": "MHLQPQKKKKHLQTFLHPQQTQVLQTICLQPRQKGRVDSQLIVLQAQQQQALQVPVEAVNCSENMRRLSISEDFSKALQILYNLGKISDNRESFDNTXFYEENLGKALRVNDNTVKPSAPVSTQESLRTVELTEGFRHQCIFDFCRRRDILRYFFDPIKANLSKGHGSNFDKSDSVACTLHPYTPYPHLQQLWVYYMLTYTQYLPLRLVGGQNRCEGRLEVRHEGEWGTVCDDRWNIKNARVVCRLLGCGPALGAPGRSHFGPGTGPILMNEVRCSGREDSLESCAHAGWTRHNCHHREDASVICAGPADSLVPKDNAQLSCLPHLFQAVIDRGYLRRLGYSSWDIHLNDKMCRPQVTGRYLIFNIPYGHCGTVMQKHQGSLSYSNSIRGRTQGHPGRVIVRHKVPQVKFTCKVDGQSAVEIVHGSDTKDEASYDVSISFLQSPVSQNTGGRAPLASQREEVFLQATLHSHNPNLRLVVDTCVASPDASDFTTVKYDLIQEGCIKDNSYSNLHAPEKNVAQFKFNAFSFLKSYDVVYVQCKVAVCRLGDHSSRCSQGCLNRGRRGAGSAEVREEQTEYFQTVGPLKIHREANQSKVLV", "values": [{"measurement": "protein production", "result": "failed"}]}, {"sequence": "MKDKIIDNAITLFSEKGYDGTTLDDIAKSVNIKKASLYYHFDSKKSIYEQSVKCCFDYLNNIIMMNQNKSNYSIDALYQFLFEFIFDIEERYIRMYVQLSNTPEEFSGNIYGQIQDLNQSLSKEIAKFYDESKIKMTKEDFQNLILLFLESWYLKASFSQKFGAVEESKSQFKDEVYSLLNIFLKK", "values": [{"measurement": "protein production", "result": "failed"}]}, {"sequence": "MGTTGFTIIDLIILIVYLLAVLVAGIYFSKKEMKGKEFFKGDGSVPWYVTSVSIFATMLSPISFLGLAGSSYAGSWILWFAQLGMVVAIPLTIRFILPIFARIDIDTAYDYLDKRFNSKALRIISALLFIIYQLGRMSIIMYLPSAGLSVLTGIDINILIILMGVVAIVYSYTGGLKSVLWTDFIQGVILISGVVLALFVLIANIKGGFGAVAETLANGKFLAANEKLFDPNLLSNSIFLIVMGSGFTILSSYASSQDLVQRFTTTQNIKKLNKMLFTNGVLSLATATVFYLIGTGLYVFYQVQNADSAASNIPQDQIFMYFIAYQLPVGITGLILAAIYAASQSTISTGLNSVATSWTLDIQDVISKNMSDNRRTKIAQFVSLAVGLFSIGVSIVMAHSDIKSAYEWFNSFMGLVLGLLGGVFILGFVSKKANKQGAYAALIVSTIVMVFIKYFLPPTAVSYWAYSLISISVSVVSGYIVSVLTGNKVSAPKYTTIHDITEIKADSSWEVRH", "values": [{"measurement": "protein production", "result": "failed"}]}, {"sequence": "MATVRLVTRKRAGRSSRPSAASLPARSAVERNSSGPLLSKSRYVRIMAARRSSSLRQQQGRLEWGGRSRPVELATRSFEKQGDATAFFKAMLNRHQPGERVSDEDGLDVAALLERHTEYVAKVGCGVSHFQVMMTEHGTQCFRIIRTDGSGTDFSYPHCISQRPPSRKQEVAQAFRRAVRFDLYKARDNLFATHSGSDGLVSCAVTGERIAQDEGHMDHRPPMTFEVIVTTFLCGRGLSLDNVPLTTGKDDQVSPEVTDNALSEAFRAYHAGIARLDFVRNTVNLAQASRHRLKDGRITLTG", "values": [{"measurement": "protein production", "result": "failed"}]}, {"sequence": "HPHIQLLKSNRELLVTHIRNTQCLVDNLLKNDYFSAEDAEIVCACPTQPDKVRKILDLVQSKGEEVSEFFLYLLQQLADAYVDLRPWLLEIGFS", "values": [{"measurement": "protein production", "result": "not failed"}]}, {"sequence": "MTAASFAQILLLLGTTALVVAVFQWLRVPSSLAYLVVGVLLGPHTGGPVIENPEIHGAAEFGIVFLMFTIGLNLSLPQVHALRHLVLGLGTGQVVLTTLVVGAAAFAFGLSPEAAFVVGAVFAQSSTAIIGKQLAEQGEEYSRHGRLAVAMSVFQDVTAVPLIVVVPVLAVPSLRVLGESLAWALAKAVLAFVLVFFAGRWLLRPLFHAVASRRSAELFTLTVLLVSLGAGGLTYQLGLSVAFGAFLVGMMLGETEFRHQVESTIRPFRDVLLGLFFVSIGMLFDPSLMEGTWQWALGGAFVLLAAKTVLVAVLVRATGIDLATAWRVGLLVAVGGEFGFALLAIALDAGVISQLTGQIVLMAVLLSMITAPFLIRYNRVLVEGWFRPPPGEEGALSAGPGVAGSPHDHVIICGYGRIGQNIGRFLEEERIPYVALDLDPQRVKEARIACEPVYYGDSSERDMLEAVGIGKARLVVVSHEDLAAAHKVLHHAAALRPGLPVMVRTRDESHVEELRRAGAAEVVPETLEAGLMIASQALLLLNVPLSRVARRIREQRLNRYLLLREFFRGDETFSDDVQSQDGDRLRAVPLPPGCRVAGCTLAELALENVVVTALVRHGVRELAPAPETRLAEGDAVVLFGAVSDLDKAERRLLG", "values": [{"measurement": "protein production", "result": "failed"}]}, {"sequence": "MPGEPGISTRPFSHCERGTTTRCGEGDAHVTVVISHLLVPATVSTVVTSSSFDRLQALLQRPAVASISPALREALARAWQELPPAQTDNVPWALLGDTLDALALLAADEATLIAALLFDLPALRGAVTDLPWQPAERRVAVEGLLDGLDAADQVWALHAGREAGRNSEGLRRLLLSIIHDLRVVPILLARQLSRMRVADRLSKEQRHALAQLTRDIHAPLANRLGIWQVKWELEDLAFRHLEPDTYRRIAREVDETRVARERYLEAVKRTLSAALAQQGLRADVSGRPKHIYSIWRKMQKKRLSFDQLYDIRAVRVMVDDVAACYAALGAVHSLWAPVPSEFDDYIARPKANDYRSLHTAVVGPEGRTIEIQIRTHEMHAQAELGVAAHWKYKEGGKGGEKAFDRKILWMRQLLEQVQEGEHGELAGALDAELIEDRVYALTPKGEVIDLPQGATPLDFAYHVHTMVGHRCRGARVNDRIVPLTYRLRSGDRVEIMTAKEADPRRDWLLASNGFLASGRSRDKVRAWFHKLDRARNVQAGKDLLDRELKRLGLQHADLSVATRKFHADTIDDLYIQVALGDTGPNQVSRALLEAERAASQPAVPAPPRPTARREGLGKSKFTVEGVGNLLVQLARCCQPVAGEPIAGYLTRGRGITVHRTDCAALARLAAAHPQRVLPVEWGKAGTGYEVDVQVRAVDRRWLLKDITNLIAQEDAHVLEINSDNVRDTGRAQLRLRLKVSDYDQLSGLLGKLDALPGVSEVRRLG", "values": [{"measurement": "protein production", "result": "failed"}]}, {"sequence": "MENIKNPKNADDCSDSISKNSHQGVDDSLNQSRSYVCSFCIRGFSNAQALGGHMNIHRRDRAKLRQKLMEDNKDDVVAESDASEVVSLDLNEQQQQQGEALTCDDHDQYVDNDISPKQKLEFWVQESKLDTNDHGKVTEASIDGSSSSHHRDIEVLDLELRLGQSVVKKKTT", "values": [{"measurement": "protein production", "result": "failed"}]}, {"sequence": "MSYLDTATDLPNQTLFLEYLNIALSNARRHHAQVGVLLCQINNWSDLKRKRGDAVANAFLQEAGQKLKSNLRNGDIVSRWDKDEFIFLVSKVQDTSSLLGIAQRLMKPVLAPVTAGGRPFQPEITYGVALYPVDGEQVNDLIGHIRENLQQLLPQPTNPGSGLEHHHHHH", "values": [{"measurement": "protein production", "result": "not failed"}]}, {"sequence": "SDDNKTTGATYDPNQPVTVESFMPVEGKLREKVIVKGSNFGTDKSKVKVYFVDEAAERLSTVIGIDNNTLYCLAPRQLPGGNRIKVIVDGKEVTTDGTFKYEQAQNVSTISGSASKDGNDDGDLASAKFKYMWGIAAVGNNTVLAYQRDDPRVRLISVDDNKVTTVHPGFKGGKPAVTKDKQRVYSIGWEGTHTVYVYMKASGWAPTRIGQLGSTFSGKIGAVALDETEEWLYFVDSNKNFGRFNVKTQEVTLIKQLELSGSLGTNPGPYLIYYFVDSNFYMSDQNLSSVYKITPDGECEWFCGSATQKTVQDGLREEALFAQPNGMTVDEDGNFYIVDGFKGYCLRKLDILDGYVSTVAGQVDVASQIDGTPLEATFNYPYDICYDGEGGYWIAEAWGKAIRKYAVE", "values": [{"measurement": "protein production", "result": "not failed"}]}, {"sequence": "MPQTKQPNFLFLMADQLTAFALRMYGNGVCRTPNLDRLAARSTRFANMYCNFPLCAPSRVAMLTGRLPSSVGVYDNASEFSAEVPTFLHHLALAGYSTILSGKMHFVGPEQHHGFQERLTTDIYPSDFGWTPDWREEIPIAPTGMNMRSVIEAGECRRSMQIDYDDDVVYRGVQKIYDLGRLHRDRPFFLAVSMTHPHNPYVSTREFLDLYRPEDIDMPAVPPIPFAQQDPHSQRLWYMFRQDEYDVSDAHVRAARHAYYAMVSYVDAQVGRMLDALQAMDLDESTVVVFTADHGDMLGERGLWYKWVHFDPAVRIPLLISAPGRTRPAVRHELASLVDIFPTMLELAGVSVPDDGASPPPDGRSLAQGLGVSQDEPTGVVYGEMNGEGAHAPCLAVRQGWWKLVVAEGDPPLLFNLQDDPHELRNLAGQPATRDIERQLTALVQARWDARRLHQDILHSQARRRLVQQSRLQGDFPAWDYQPFTDASRQYVRAGAQSSPALVKGKLRYPPVAPVAPQHPRPARSNLPE", "values": [{"measurement": "protein production", "result": "failed"}]}]}
